The results in this text go back to patent publication US20260015399A1 (Boehringer Ingelheim, published 2026).

*1 amine or outer side, *2 acyl side, *3 side chain or, on linkers, in order; H or OH if unused. Side-chain parts run from the residue outwards. The star is where a group is joined. C18 diacid = O=C(O)CCCCCCCCCCCCCCCCC(=O)*; γGlu = O=C(O)[C@H](CCC(=O)[*:2])N[*:1]; Isovaleryl = CC(C)CC(=O)*; Ahx = NCCCCCC(=O)O

The target of this experiment is T1, human NPY2 receptor (human, UniProt P49146 1-381).
T1 construct: whole, on cells; also called hNPY2-R; hNPY2R
T1 sequence (looked up): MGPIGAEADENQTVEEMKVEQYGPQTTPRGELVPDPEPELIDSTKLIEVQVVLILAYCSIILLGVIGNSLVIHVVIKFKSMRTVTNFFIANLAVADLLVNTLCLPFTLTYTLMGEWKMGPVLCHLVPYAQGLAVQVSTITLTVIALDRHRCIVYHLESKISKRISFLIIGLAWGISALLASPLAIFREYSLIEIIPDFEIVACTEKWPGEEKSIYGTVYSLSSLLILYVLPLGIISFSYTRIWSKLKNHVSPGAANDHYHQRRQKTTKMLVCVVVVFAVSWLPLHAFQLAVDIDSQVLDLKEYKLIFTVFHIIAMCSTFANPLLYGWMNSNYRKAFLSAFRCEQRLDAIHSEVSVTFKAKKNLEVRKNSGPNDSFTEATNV
The experiment is described as follows: RLB: displacement of 125I-PYY(1-36) from hNPY2R membranes. For orientation: In a radioligand displacement assay an active substance lowers the binding of a labelled ligand.

B1: Compound 88 (peptide)
peptide: Isovaleryl-APEK([Ahx-γGlu-C18 diacid])PEEDATPEELQRQYVSLRHYYNWLTRQRY-NH2
SMILES: CC(C)CC(=O)N[C@@H](C)C(=O)N1CCC[C@H]1C(=O)N[C@@H](CCC(=O)O)C(=O)N[C@@H](CCCCNC(=O)CCCCCNC(=O)CC[C@H](NC(=O)CCCCCCCCCCCCCCCCC(=O)O)C(=O)O)C(=O)N1CCC[C@H]1C(=O)N[C@@H](CCC(=O)O)C(=O)N[C@@H](CCC(=O)O)C(=O)N[C@@H](CC(=O)O)C(=O)N[C@@H](C)C(=O)N[C@H](C(=O)N1CCC[C@H]1C(=O)N[C@@H](CCC(=O)O)C(=O)N[C@@H](CCC(=O)O)C(=O)N[C@@H](CC(C)C)C(=O)N[C@@H](CCC(N)=O)C(=O)N[C@@H](CCCNC(=N)N)C(=O)N[C@@H](CCC(N)=O)C(=O)N[C@@H](Cc1ccc(O)cc1)C(=O)N[C@H](C(=O)N[C@@H](CO)C(=O)N[C@@H](CC(C)C)C(=O)N[C@@H](CCCNC(=N)N)C(=O)N[C@@H](Cc1c[nH]cn1)C(=O)N[C@@H](Cc1ccc(O)cc1)C(=O)N[C@@H](Cc1ccc(O)cc1)C(=O)N[C@@H](CC(N)=O)C(=O)N[C@@H](Cc1c[nH]c2ccccc12)C(=O)N[C@@H](CC(C)C)C(=O)N[C@H](C(=O)N[C@@H](CCCNC(=N)N)C(=O)N[C@@H](CCC(N)=O)C(=O)N[C@@H](CCCNC(=N)N)C(=O)N[C@@H](Cc1ccc(O)cc1)C(N)=O)[C@@H](C)O)C(C)C)[C@@H](C)O
Usually Ki stands for a measure of affinity in units of concentration, obtained from inhibition or displacement. Take B1: the Ki was found to be 16.3 nM.

B2: Compound 93 (peptide)
peptide: Isovaleryl-APEK([Ahx-γGlu-C18 diacid])PEEDASPEEIQRYYVQLRHYYNWLTRQRY-NH2
SMILES: CC[C@H](C)[C@H](NC(=O)[C@H](CCC(=O)O)NC(=O)[C@H](CCC(=O)O)NC(=O)[C@@H]1CCCN1C(=O)[C@H](CO)NC(=O)[C@H](C)NC(=O)[C@H](CC(=O)O)NC(=O)[C@H](CCC(=O)O)NC(=O)[C@H](CCC(=O)O)NC(=O)[C@@H]1CCCN1C(=O)[C@H](CCCCNC(=O)CCCCCNC(=O)CC[C@H](NC(=O)CCCCCCCCCCCCCCCCC(=O)O)C(=O)O)NC(=O)[C@H](CCC(=O)O)NC(=O)[C@@H]1CCCN1C(=O)[C@H](C)NC(=O)CC(C)C)C(=O)N[C@@H](CCC(N)=O)C(=O)N[C@@H](CCCNC(=N)N)C(=O)N[C@@H](Cc1ccc(O)cc1)C(=O)N[C@@H](Cc1ccc(O)cc1)C(=O)N[C@H](C(=O)N[C@@H](CCC(N)=O)C(=O)N[C@@H](CC(C)C)C(=O)N[C@@H](CCCNC(=N)N)C(=O)N[C@@H](Cc1c[nH]cn1)C(=O)N[C@@H](Cc1ccc(O)cc1)C(=O)N[C@@H](Cc1ccc(O)cc1)C(=O)N[C@@H](CC(N)=O)C(=O)N[C@@H](Cc1c[nH]c2ccccc12)C(=O)N[C@@H](CC(C)C)C(=O)N[C@H](C(=O)N[C@@H](CCCNC(=N)N)C(=O)N[C@@H](CCC(N)=O)C(=O)N[C@@H](CCCNC(=N)N)C(=O)N[C@@H](Cc1ccc(O)cc1)C(N)=O)[C@@H](C)O)C(C)C
In the case of B2, the affinity, expressed as Ki, was 1.71 nM.

B3: Compound 90 (peptide)
peptide: Isovaleryl-APEK([Ahx-γGlu-C18 diacid])PEEDATPEELQRYYVVLRHYYNWLTRQRY-NH2
SMILES: CC(C)CC(=O)N[C@@H](C)C(=O)N1CCC[C@H]1C(=O)N[C@@H](CCC(=O)O)C(=O)N[C@@H](CCCCNC(=O)CCCCCNC(=O)CC[C@H](NC(=O)CCCCCCCCCCCCCCCCC(=O)O)C(=O)O)C(=O)N1CCC[C@H]1C(=O)N[C@@H](CCC(=O)O)C(=O)N[C@@H](CCC(=O)O)C(=O)N[C@@H](CC(=O)O)C(=O)N[C@@H](C)C(=O)N[C@H](C(=O)N1CCC[C@H]1C(=O)N[C@@H](CCC(=O)O)C(=O)N[C@@H](CCC(=O)O)C(=O)N[C@@H](CC(C)C)C(=O)N[C@@H](CCC(N)=O)C(=O)N[C@@H](CCCNC(=N)N)C(=O)N[C@@H](Cc1ccc(O)cc1)C(=O)N[C@@H](Cc1ccc(O)cc1)C(=O)N[C@H](C(=O)N[C@H](C(=O)N[C@@H](CC(C)C)C(=O)N[C@@H](CCCNC(=N)N)C(=O)N[C@@H](Cc1c[nH]cn1)C(=O)N[C@@H](Cc1ccc(O)cc1)C(=O)N[C@@H](Cc1ccc(O)cc1)C(=O)N[C@@H](CC(N)=O)C(=O)N[C@@H](Cc1c[nH]c2ccccc12)C(=O)N[C@@H](CC(C)C)C(=O)N[C@H](C(=O)N[C@@H](CCCNC(=N)N)C(=O)N[C@@H](CCC(N)=O)C(=O)N[C@@H](CCCNC(=N)N)C(=O)N[C@@H](Cc1ccc(O)cc1)C(N)=O)[C@@H](C)O)C(C)C)C(C)C)[C@@H](C)O
As for B3, the affinity, expressed as Ki, was 8.71 nM.

B4: Compound 96 (peptide)
peptide: Isovaleryl-APEK([Ahx-γGlu-C18 diacid])PEESATPEELQRYYVSLRHYYNWLTRQRY-NH2
SMILES: CC(C)CC(=O)N[C@@H](C)C(=O)N1CCC[C@H]1C(=O)N[C@@H](CCC(=O)O)C(=O)N[C@@H](CCCCNC(=O)CCCCCNC(=O)CC[C@H](NC(=O)CCCCCCCCCCCCCCCCC(=O)O)C(=O)O)C(=O)N1CCC[C@H]1C(=O)N[C@@H](CCC(=O)O)C(=O)N[C@@H](CCC(=O)O)C(=O)N[C@@H](CO)C(=O)N[C@@H](C)C(=O)N[C@H](C(=O)N1CCC[C@H]1C(=O)N[C@@H](CCC(=O)O)C(=O)N[C@@H](CCC(=O)O)C(=O)N[C@@H](CC(C)C)C(=O)N[C@@H](CCC(N)=O)C(=O)N[C@@H](CCCNC(=N)N)C(=O)N[C@@H](Cc1ccc(O)cc1)C(=O)N[C@@H](Cc1ccc(O)cc1)C(=O)N[C@H](C(=O)N[C@@H](CO)C(=O)N[C@@H](CC(C)C)C(=O)N[C@@H](CCCNC(=N)N)C(=O)N[C@@H](Cc1c[nH]cn1)C(=O)N[C@@H](Cc1ccc(O)cc1)C(=O)N[C@@H](Cc1ccc(O)cc1)C(=O)N[C@@H](CC(N)=O)C(=O)N[C@@H](Cc1c[nH]c2ccccc12)C(=O)N[C@@H](CC(C)C)C(=O)N[C@H](C(=O)N[C@@H](CCCNC(=N)N)C(=O)N[C@@H](CCC(N)=O)C(=O)N[C@@H](CCCNC(=N)N)C(=O)N[C@@H](Cc1ccc(O)cc1)C(N)=O)[C@@H](C)O)C(C)C)[C@@H](C)O
Molecule B4 returned a Ki of 3.06 nM.

B5: Compound 94 (peptide)
peptide: Isovaleryl-APAK([Ahx-γGlu-C18 diacid])PEADASPEELQRYYVELRHYYNWLTRQRY-NH2
SMILES: CC(C)CC(=O)N[C@@H](C)C(=O)N1CCC[C@H]1C(=O)N[C@@H](C)C(=O)N[C@@H](CCCCNC(=O)CCCCCNC(=O)CC[C@H](NC(=O)CCCCCCCCCCCCCCCCC(=O)O)C(=O)O)C(=O)N1CCC[C@H]1C(=O)N[C@@H](CCC(=O)O)C(=O)N[C@@H](C)C(=O)N[C@@H](CC(=O)O)C(=O)N[C@@H](C)C(=O)N[C@@H](CO)C(=O)N1CCC[C@H]1C(=O)N[C@@H](CCC(=O)O)C(=O)N[C@@H](CCC(=O)O)C(=O)N[C@@H](CC(C)C)C(=O)N[C@@H](CCC(N)=O)C(=O)N[C@@H](CCCNC(=N)N)C(=O)N[C@@H](Cc1ccc(O)cc1)C(=O)N[C@@H](Cc1ccc(O)cc1)C(=O)N[C@H](C(=O)N[C@@H](CCC(=O)O)C(=O)N[C@@H](CC(C)C)C(=O)N[C@@H](CCCNC(=N)N)C(=O)N[C@@H](Cc1c[nH]cn1)C(=O)N[C@@H](Cc1ccc(O)cc1)C(=O)N[C@@H](Cc1ccc(O)cc1)C(=O)N[C@@H](CC(N)=O)C(=O)N[C@@H](Cc1c[nH]c2ccccc12)C(=O)N[C@@H](CC(C)C)C(=O)N[C@H](C(=O)N[C@@H](CCCNC(=N)N)C(=O)N[C@@H](CCC(N)=O)C(=O)N[C@@H](CCCNC(=N)N)C(=O)N[C@@H](Cc1ccc(O)cc1)C(N)=O)[C@@H](C)O)C(C)C
On to B5, for which the affinity, expressed as Ki, was 0.93 nM.

B6: Compound 95 (peptide)
peptide: Isovaleryl-APEK([Ahx-γGlu-C18 diacid])PEEDATPEELQAYYVSLRHYYNWLTRQRY-NH2
SMILES: CC(C)CC(=O)N[C@@H](C)C(=O)N1CCC[C@H]1C(=O)N[C@@H](CCC(=O)O)C(=O)N[C@@H](CCCCNC(=O)CCCCCNC(=O)CC[C@H](NC(=O)CCCCCCCCCCCCCCCCC(=O)O)C(=O)O)C(=O)N1CCC[C@H]1C(=O)N[C@@H](CCC(=O)O)C(=O)N[C@@H](CCC(=O)O)C(=O)N[C@@H](CC(=O)O)C(=O)N[C@@H](C)C(=O)N[C@H](C(=O)N1CCC[C@H]1C(=O)N[C@@H](CCC(=O)O)C(=O)N[C@@H](CCC(=O)O)C(=O)N[C@@H](CC(C)C)C(=O)N[C@@H](CCC(N)=O)C(=O)N[C@@H](C)C(=O)N[C@@H](Cc1ccc(O)cc1)C(=O)N[C@@H](Cc1ccc(O)cc1)C(=O)N[C@H](C(=O)N[C@@H](CO)C(=O)N[C@@H](CC(C)C)C(=O)N[C@@H](CCCNC(=N)N)C(=O)N[C@@H](Cc1c[nH]cn1)C(=O)N[C@@H](Cc1ccc(O)cc1)C(=O)N[C@@H](Cc1ccc(O)cc1)C(=O)N[C@@H](CC(N)=O)C(=O)N[C@@H](Cc1c[nH]c2ccccc12)C(=O)N[C@@H](CC(C)C)C(=O)N[C@H](C(=O)N[C@@H](CCCNC(=N)N)C(=O)N[C@@H](CCC(N)=O)C(=O)N[C@@H](CCCNC(=N)N)C(=O)N[C@@H](Cc1ccc(O)cc1)C(N)=O)[C@@H](C)O)C(C)C)[C@@H](C)O
In the case of B6, the affinity, expressed as Ki, was 2.92 nM.
